{
  "source": "IntAct's records for PubMed 23700447",
  "parents": {"B1": {"name": "Membrane protein (Human SARS coronavirus), P59596 (parent)", "chain": "MADNGTITVEELKQLLEQWNLVIGFLFLAWIMLLQFAYSNRNRFLYIIKLVFLWLLWPVTLACFVLAAVYRINWVTGGIAIAMACIVGLMWLSYFVASFRLFARTRSMWSFNPETNILLNVPLRGTIVTRPLMESELVIGAVIIRGHLRMAGHSLGRCDIKDLPKEITVATSRTLSYYKLGASQRVGTDSGFAAYNRYRIGNYKLNTDHAGSNDNIALLVQ"}},
  "data": [
    {"variants_of": "B1", "details": "with ncap_sars N", "values": [
      {"variant": "L218A;L219A", "effect of a mutation on the interaction": "with no effect"}
    ]}
  ]
}
